Measurements from paper PMC10434305.
Like-named read-outs stand apart in the source and are kept apart here.

Tests used:
[1] = biological target: Arp3 L117C, C408A, C189A, C307A (subunit of human Arp2/3 complex for the crosslinking assay) (human) (UniProt P61158); assay: cross-linking
[2] = biological target: Arp3 L117C, C408A, C189A, C307A (subunit of human Arp2/3 complex for the crosslinking assay) (human) (UniProt P61158); assay: cross-linking; remark: listed apart in the source
[3] = biological target: Arp3 L117C, C408A, C189A, C307A (subunit of human Arp2/3 complex for the crosslinking assay) (human) (UniProt P61158); assay: cross-linking; remark: listed apart in the source
[4] = biological target: Skeletal α-actin, monomeric (G-actin) (UniProt P68135); assay: SEC

Row | crosslinked fraction at plateau [1] | crosslinked fraction at plateau [2] | crosslinked fraction at plateau [3] | stoichiometry N (CapZ-CA:actin) [4] | Substance
1 | 14% | 34% | 34% |  | Arp2 L199C (subunit of human Arp2/3 complex for the crosslinking assay) (from UniProt P61160 1-394) (natural protein)
2 |  |  |  | 1 | CapZ-CA hybrid heterodimer (CapZα-CA, CapZβ-CA) (from UniProt P52907;Q91YD9;P47756) (complex)
